# Laboratory results taken from CN112125972A (SINOCELLTECH LTD, dated 2020).
# T1: HPV56 VLP (Human papillomavirus type 56, UniProt P36743 36-534)
# T1 construct: also called HPV56完整VLP蛋白
# T1 sequence: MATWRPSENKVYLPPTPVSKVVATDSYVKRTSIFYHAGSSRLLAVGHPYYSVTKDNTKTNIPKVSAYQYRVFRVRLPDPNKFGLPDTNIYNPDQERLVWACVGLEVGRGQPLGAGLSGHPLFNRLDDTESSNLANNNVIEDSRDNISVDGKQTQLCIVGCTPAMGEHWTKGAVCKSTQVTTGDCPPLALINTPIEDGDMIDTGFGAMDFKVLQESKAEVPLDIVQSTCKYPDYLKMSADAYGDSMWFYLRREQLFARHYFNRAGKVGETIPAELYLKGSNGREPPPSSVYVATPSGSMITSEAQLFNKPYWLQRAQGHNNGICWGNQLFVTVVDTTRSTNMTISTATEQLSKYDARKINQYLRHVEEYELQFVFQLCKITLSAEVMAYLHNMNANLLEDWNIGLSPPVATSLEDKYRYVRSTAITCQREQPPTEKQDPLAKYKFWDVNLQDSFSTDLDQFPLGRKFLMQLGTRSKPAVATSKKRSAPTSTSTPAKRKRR
# T2: HPV58 VLP (Human papillomavirus type 58, UniProt P26535 27-524)
# T2 construct: also called HPV58完整VLP蛋白
# T2 sequence: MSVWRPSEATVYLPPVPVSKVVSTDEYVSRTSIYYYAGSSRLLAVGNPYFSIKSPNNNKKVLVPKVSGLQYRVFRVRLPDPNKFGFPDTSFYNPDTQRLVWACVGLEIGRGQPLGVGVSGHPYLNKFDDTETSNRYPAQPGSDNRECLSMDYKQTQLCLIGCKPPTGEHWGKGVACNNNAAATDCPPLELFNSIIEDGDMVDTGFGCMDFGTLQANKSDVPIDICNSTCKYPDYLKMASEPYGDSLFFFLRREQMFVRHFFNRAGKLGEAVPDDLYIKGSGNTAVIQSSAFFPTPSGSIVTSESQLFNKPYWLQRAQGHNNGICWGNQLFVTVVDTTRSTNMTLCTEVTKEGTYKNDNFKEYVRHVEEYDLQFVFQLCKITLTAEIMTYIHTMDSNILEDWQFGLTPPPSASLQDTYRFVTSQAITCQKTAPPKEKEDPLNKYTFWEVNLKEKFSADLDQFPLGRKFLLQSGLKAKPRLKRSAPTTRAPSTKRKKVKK
# T3: HPV6 VLP (Human papillomavirus type 6, UniProt P69899 1-500)
# T3 construct: also called HPV6完整VLP蛋白
# T3 sequence: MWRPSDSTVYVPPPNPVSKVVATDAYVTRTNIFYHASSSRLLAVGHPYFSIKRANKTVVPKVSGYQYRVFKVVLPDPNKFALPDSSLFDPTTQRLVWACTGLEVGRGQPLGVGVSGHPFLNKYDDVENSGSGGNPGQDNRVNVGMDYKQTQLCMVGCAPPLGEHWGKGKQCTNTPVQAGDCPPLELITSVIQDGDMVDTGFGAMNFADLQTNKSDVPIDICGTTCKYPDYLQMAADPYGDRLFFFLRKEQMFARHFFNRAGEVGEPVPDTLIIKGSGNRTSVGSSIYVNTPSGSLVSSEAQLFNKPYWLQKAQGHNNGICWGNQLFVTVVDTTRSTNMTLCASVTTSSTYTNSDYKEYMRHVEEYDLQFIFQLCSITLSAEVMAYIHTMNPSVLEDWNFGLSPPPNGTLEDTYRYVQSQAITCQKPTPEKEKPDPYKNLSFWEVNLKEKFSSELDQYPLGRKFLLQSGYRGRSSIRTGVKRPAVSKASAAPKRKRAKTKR
# T4: HPV52 VLP (Human papillomavirus type 52, UniProt Q05138 27-529)
# T4 construct: also called HPV52完整VLP蛋白
# T4 sequence: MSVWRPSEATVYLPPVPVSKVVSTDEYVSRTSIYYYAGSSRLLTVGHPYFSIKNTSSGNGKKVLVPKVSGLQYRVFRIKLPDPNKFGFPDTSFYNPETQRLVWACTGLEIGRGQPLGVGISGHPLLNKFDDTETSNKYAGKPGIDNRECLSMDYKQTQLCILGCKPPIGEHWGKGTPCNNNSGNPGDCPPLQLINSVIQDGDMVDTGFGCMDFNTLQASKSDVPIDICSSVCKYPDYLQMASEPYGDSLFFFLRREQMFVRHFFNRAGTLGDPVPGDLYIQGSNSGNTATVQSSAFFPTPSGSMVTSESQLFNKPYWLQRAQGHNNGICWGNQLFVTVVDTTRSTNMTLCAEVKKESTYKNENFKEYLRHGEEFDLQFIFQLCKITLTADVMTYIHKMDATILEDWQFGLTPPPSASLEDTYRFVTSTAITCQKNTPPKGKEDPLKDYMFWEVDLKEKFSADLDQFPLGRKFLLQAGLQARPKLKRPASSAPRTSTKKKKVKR
# T5: HPV35 VLP (Human papillomavirus type 35, UniProt P27232 1-502)
# T5 construct: also called HPV35完整VLP蛋白
# T5 sequence: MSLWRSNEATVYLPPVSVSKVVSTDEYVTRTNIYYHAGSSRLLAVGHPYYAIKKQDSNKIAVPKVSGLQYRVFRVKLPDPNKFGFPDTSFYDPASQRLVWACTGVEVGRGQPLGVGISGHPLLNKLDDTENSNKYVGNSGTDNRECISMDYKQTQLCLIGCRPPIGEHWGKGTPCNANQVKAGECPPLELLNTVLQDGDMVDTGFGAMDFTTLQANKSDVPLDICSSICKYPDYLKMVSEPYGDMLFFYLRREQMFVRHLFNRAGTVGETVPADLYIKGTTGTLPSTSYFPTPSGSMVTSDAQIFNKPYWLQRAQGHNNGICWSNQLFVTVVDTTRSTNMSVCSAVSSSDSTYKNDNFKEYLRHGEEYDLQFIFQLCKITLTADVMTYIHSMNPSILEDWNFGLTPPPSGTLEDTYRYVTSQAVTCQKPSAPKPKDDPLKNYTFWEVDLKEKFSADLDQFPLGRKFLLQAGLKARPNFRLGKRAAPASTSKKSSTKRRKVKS
# Assays:
# HPV56 VLP [1] = target: T1, HPV56 VLP; experiment: indirect ELISA, VLP coated at 2 μg/mL
# HPV58 VLP = target: T2, HPV58 VLP; experiment: indirect ELISA, VLP coated at 2 μg/mL
# HPV6 VLP = target: T3, HPV6 VLP; experiment: indirect ELISA, VLP coated at 2 μg/mL
# HPV52 VLP = target: T4, HPV52 VLP; experiment: indirect ELISA, VLP coated at 2 μg/mL
# HPV56 VLP [2] = target: T1, HPV56 VLP; experiment: indirect ELISA, VLP coated at 2 μg/mL, antibody at 10 ng/mL
# HPV35 VLP = target: T5, HPV35 VLP; experiment: as above
# HPV59 VLP = target: T6, HPV59 VLP (Human papillomavirus type 59); experiment: as above
# T6 construct: also called HPV59完整VLP蛋白
binder,measurement,setting,value
"HPV 16 R001 (antibody, V domains shown, An HRP-labelled form served as detection antibody in the sandwich ELISA; also called HPV16.001; 单克隆抗体HPV 16 R001) VH: QSVKESEGRLVTPGTPLTLTCTASGFTMSRYHMTWVRQAPGKGLEWIGIIYARNSDTYYANWAKGRFTISKTSTTVDLKITSPTIEDTATYFCARVDSDSSGAFDRLDLWGQGTLVTVSS VL: DPMLTQTAASVEVAVGGTVTIKCQASQSIGGYLSWYQQKPGQRPKLLIYRASTLASGVPSRFKGSGSGTEYTLTFSGVECADAAAYYCQQGYTSSDINNAFGGGTEVVVK",binding result,HPV56 VLP [1],no binding (tested: 10ng/mL)
same,binding result,HPV58 VLP,no binding (tested: 10ng/mL)
same,binding result,HPV6 VLP,no binding (tested: 10ng/mL)
same,binding result,HPV52 VLP,no binding (tested: 10ng/mL)
same,OD450-blank,HPV56 VLP [2],0.003 OD450
same,OD450-blank,HPV35 VLP,0.001 OD450
same,OD450-blank,HPV59 VLP,0 OD450
